Measurements from patent US20040167074A1, “Therapeutic applications of mFLINT polypeptides” (priority 1998, published 2004).
Values joined by “and” are separate entries in the source; they are usually repeats but may differ in a detail not shown here. Equal entries are not always repeated.

Legend:
Jurkat cells [1] = test: anti-CD3 induced Jurkat apoptosis (Annexin V/PI, FACS); type: cell-based; conditions: Example 12; Jurkat + antiCD3 + 10 μM DEVD-cmk
Experimental: Non-tissue treated 24 well plates (Decton Dickinson, Mansfield, Mass.) were coated with 0.5 ml of 1 ug/ml anti-CD3 (Farmingen) in PBS for 90 min at 37° C. The plate was washed once with PBS.
Cells were incubated overnight at 37° C. incubator and cells were then stained by Annexin V and PI staining. Apotosis was analyzed by flow cytometer (FACS). Cell apoptosis was indicated by positive staining with Annexin V.

[2] = target: FasL expressed by anti-CD3-activated Jurkat cells
[3] = target: soluble Fas L (recombinant FasL)
[4] = target: FasL expressed by anti-CD3-activated Jurkat cells; remark: listed apart in the source
FasL = target: T1, FasL (Homo sapiens, UniProt P48023); test: BiaCore real-time biomolecular interaction analysis (surface plasmon resonance); type: binding; conditions: immobilized FasL (monomer bound), analyte in solution
T1 construct: purchased Kamiya Biomedical Company
T1 sequence (P48023 130-281 limits assumed): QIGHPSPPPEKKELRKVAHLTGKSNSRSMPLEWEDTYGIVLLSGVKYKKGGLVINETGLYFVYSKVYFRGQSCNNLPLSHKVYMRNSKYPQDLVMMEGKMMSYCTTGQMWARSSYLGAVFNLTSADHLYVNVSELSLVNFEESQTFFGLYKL
Text: FLINT-Fas L binding may be confirmed and specifics of binding determined (e.g., kinetics, specificity, affinity, cooperativity, relative binding pattern, concentration) using real-time biomolecular interaction analysis. This technology confers the ability to study biomolecular interactions in real time, without labeling any of the interactants. In particular, it takes advantage of the optical phenomenon surface plasmon resonance, and detection depends on changes in the mass concentration of macromolecules at the biospecific interface. Interactions are followed in real time, so that kinetic information is readily derived. In many cases, investigations can be performed without prior purification of components.
Measurements are accomplished using a BiaCore 2000 instrument. The instrument, accompanying chips, immobilization and maintenance kits and buffers are obtained from Biacore AB, Rapsgatan 7, S-754 50 Uppsala, Sweden. FasL is obtained from Kamiya Biomedical Company, 910 Industry Drive, Seattle, Wash. 98188, Guanidine Isothiocyanate Solution from GibcoBRL, and mFLINT is prepared as in Examples 8 and 9.
Experiments using immobilized FasL loaded with a solution containing mFLINT. […] This is explained by the fact that FasL is a trimer, yet here FasL monomer was bound. Further experiments utilized bound FLINT with FasL in solution, allowing for trimer formation. […] This observations indicate that FLINT should effectively compete with Fas for FasL binding, which likely explains the therapeutic benefit observed in experiments detailed below.

hFasLigand (Flag-tagged) = target: T2, hFasLigand (Flag-tagged) (Homo sapiens, UniProt P48023); test: ELISA: FasLigand binding to adsorbed FLINT and Fas; conditions: 100 ng receptor adsorbed
T2 sequence (P48023 103-281 limits assumed): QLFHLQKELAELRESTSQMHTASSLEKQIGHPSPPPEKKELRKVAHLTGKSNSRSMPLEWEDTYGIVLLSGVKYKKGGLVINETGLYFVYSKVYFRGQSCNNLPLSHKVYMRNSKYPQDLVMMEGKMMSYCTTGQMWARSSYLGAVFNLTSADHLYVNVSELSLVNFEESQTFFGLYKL
Experimental: FLINT and Fas (100 ng of each) were adsorbed on to an ELISA plate. hFasLigand (Flag-tagged) was added at different concentrations to a maximum concentration of 300 ng down to 0.1 ng on TBST plus a 0.1% solution containing 1 microgram/ml of M2 Abs. After washing of the plate, anti-mouse-Abs-HRP (1:3000 dilution, Bio-Rad) was added to the wells. After washings, visualization enzymatic reaction using ABTS as a substrate was performed.

LIGHT = LIGHT cell surface binding assay by flow cytometry
Experimental: To confirm the dot blot binding between LIGHT and mFLINT, 293 cells were transiently transfected with LIGHT expression construct overnight. On the next day, cells were detached and incubated with mFLINT-Flag on ice. […] As a control we used vector transfected cells. To make sure that the binding was specific, a competition assay with 10 fold access of untagged mFLINT was performed.
More particularly, 6 well dishes of cells were transfected as above. Both vector and m-LIGHT expressing cells were provided. Cells were detached from the plates by vigorous pipetting with a P100 Pipettor. Then, in PBS/BSA, 0.1%, cells were exposed to one of the following combinations, set forth in a-d.
a. GST/flag, mFLINT/flag, or HVEM at 20 nM;
b. FLINT/flag at 20 nM+GST/flag or mFLINT or HVEM at 200 nM;
c. FLINT/flag at 20 nM+HVEM+anti-human FAS ligand at 200 n-M;
d. anti-human FAS ligand-biotin at 1 μg/ml
Cells were incubated on ice for 30 minutes and washed with PBS/BSA, 0.1%. Cells then were exposed either to anti-human IgG-biotin, 1 μg/ml (for detection of HVEM), or to M2-biotin, 2 μg/ml (for detection of flag conjugates). Cells were incubated on ice for 30 minutes and washed with PBS/BSA, 0.1%. Thereafter, cells were exposed to streptavidin Alexa 488 (SIGMA) at a 1:1000 dilution. Again, cells were incubated on ice for 30 minutes and washed with PBS/BSA, 0.1 1%. Cells were analyzed using a FACSORT flow cytometer (Decton Dickinson) to determine binding.

Jurkat cells [5] = test: Recombinant FasL induced Jurkat cell apoptosis (Annexin V/PI, FACS); type: cell-based; conditions: Jurkat + inducer alone 200 ng/ml, overnight
Experimental: One milliliter of 1×10^6 cell/ml was added into each well of 24 well tissue culture plate and treated with following reagents: soluble Fas L (200 ng), Fas L plus 1 ug mFLINT, Fas L plus 1 ug OPG2-Fc, Trail (200 ng), Trail plus 1 ug mFLINT. Cells were incubated overnight at 37° C. and then stained with Annexin V and PI.

[6] = tested on: Mouse T cell hybridoma cells (LTT cells); test: Murine FasL-mediated apoptosis of LTT cells (MTS cytotoxicity assay); type: cell-based; conditions: test agent 1 μg/ml
Experimental: (§1) LTT,2,14,11 cells (LTT cells), see Glasebrook, Eur.J.Immunol. 17: 1561-65 (1987), were used in this Annexin V assay. On the first day, a 96 well plate was coated with anti-CD3 (2C11) at a serial dilutions. On the second day, 100,000 LTT cells were added, in 50 μl of medium per well, along with 50 μl of medium to the control wells and 50 μl of medium containing:
The same steps as in Example 16 were followed on Day 1 and Day 2. On Day 3 20 ul of MTS solution (Promega) was added to the cells which were then incubated at 37° C. for 2 hours. Using a plate reader, the absorbances at 490 nm wavelength were collected.

[7] = tested on: Mouse T cell hybridoma cells (LTT cells); test: Murine FasL-mediated apoptosis of LTT cells (Annexin V assay); type: cell-based; conditions: test agent 1 μg/ml
Experimental: as §1
Group 1. solubleFas (sFas)(FasFc, mouse), with a final concentration of 1 μg/ml
Group 2. mFLINT (human), with a final concentration of 1 ug/ml
Group 3. anti-FasL (mouse), with a final concentration of 1 ug/ml.
These then were incubated overnight, at 37° C., in 5% CO2;
On the following day (Day 3), the cells were collected from each well, washed and labeled with Annexin V and PI, following Flow cytometry analysis.

## DEVD-cmk [DEVDcmk, reference compound]
Jurkat cells [1]
  Cell apoptosis (positive staining with Annexin V): 30.80

## OPG2-Fc (Fc fusion)
[2]
  apoptosis of Jurkat cells, positive staining with Annexin V (FACS): 45.8
[3]
  apoptosis of Jurkat cells, Annexin V and PI (FACS): 70.6
[4]
  apoptosis of Jurkat cells: 26.2

B1: Fas: Fas receptor protein adsorbed on ELISA plate or compared in BiaCore (protein, UniProt P25446 22-169, looked up)
extracellular domain: QGTNSISESLKLRRRVRETDKNCSEGLYQGGPFCCQPCQPGKKKVEDCKMNGGTPTCAPCTEGKEYMDKNHYADKCRRCTLCDEEHGLEVETNCTLTQNTKCKCKPDFYCDSPGCEHCVRCASCEHGTLEPCTATSNTNCRKQSPRNR
modifications: extracellular domain
notes: Fas receptor protein adsorbed on ELISA plate or compared in BiaCore
FasL
  Kd: 162 nM
hFasLigand (Flag-tagged); FasL 0.1 ng
  OD, 405 nM: 0
hFasLigand (Flag-tagged); FasL 0.5 ng
  OD, 405 nM: 0
hFasLigand (Flag-tagged); FasL 1.0 ng
  OD, 405 nM: 0
hFasLigand (Flag-tagged); FasL 5.0 ng
  OD, 405 nM: .01
hFasLigand (Flag-tagged); FasL 10 ng
  OD, 405 nM: .03
hFasLigand (Flag-tagged); FasL 50 ng
  OD, 405 nM: .045
hFasLigand (Flag-tagged); FasL 100 ng
  OD, 405 nM: .18

B2: mFLINT-Flag: FLINT with the Flag sequence attached at the C-terminal end: [FLINT]-DYKDDDDK (protein)
chain: VAETPTYPWRDAETGERLVCAQCPPGTFVQRPCRRDSPTTCGPCPPRHYTQFWNYLERCRYCNVLCGEREEEARACHATHNRACRCRTGFFAHAGFCLEHASCPPGAGVIAPGTPSQNTQCQPCPPGTFSASSSSSEQCQPHRNCTALGLALNVPGSSSHDTLCTSCTGFPLSTRVPGAEECERAVIDFVAFQDISIKRLQRLLQALEAPEGWGPTPRAGRAALQLKLRRRLTELLGAQDGALLVRLLQALRVARMPGLERSVRERFLPVHDYKDDDDK
LIGHT; LIGHT-transfected 293 cells
  cell surface binding (flow cytometry peak shift): peaks shifted only when LIGHT expressing cells were stained with mFLINT-Flag
LIGHT; vector transfected control cells
  cell surface binding (flow cytometry peak shift): no shift in the control cells

B3: TRAIL: TNF ligand TRAIL (RnD Systems) (protein, UniProt P50591 1-281, looked up)
Tumor necrosis factor ligand …: MAMMEVQGGPSLGQTCVLIVIFTVLLQSLCVAVTYVYFTNELKQMQDKYSKSGIACFLKEDDSYWDPNDEESMNSPCWQVKWQLRQLVRKMILRTSEETISTVQEKQQNISPLVRERGPQRVAAHITGTRGRSNTLSSPNSKNEKALGRKINSWESSRSGHSFLSNLHLRNGELVIHEKGFYYIYSQTYFRFQEEIKENTKNDKQMVQYIYKYTSYPDPILLMKSARNSCWSKDAEYGLYSIYQGGIFELKENDRIFVSVTNEHLIDMDHEASFFGAFLVG
Jurkat cells [5]
  Cell apoptosis (Annexin V and PI, FACS): 17.47 and 17.43

B4: SFas: solubleFas (sFas)(FasFc, mouse) (protein)
chain: B1 extracellular domain
[6]; Anti CD3 conc. 0 μg/ml
  MTS absorbance at 490 nm: 1.774
[6]; Anti CD3 conc. 0.0014 μg/ml
  MTS absorbance at 490 nm: 1.968
[6]; Anti CD3 conc. 0.004 μg/ml
  MTS absorbance at 490 nm: 1.929
[6]; Anti CD3 conc. 0.012 μg/ml
  MTS absorbance at 490 nm: 1.779
[6]; Anti CD3 conc. 0.037 μg/ml
  MTS absorbance at 490 nm: 1.777
[6]; Anti CD3 conc. 0.11 μg/ml
  MTS absorbance at 490 nm: 1.638
[6]; Anti CD3 conc. 0.33 μg/ml
  MTS absorbance at 490 nm: 1.624
[6]; Anti CD3 conc. 1 μg/ml
  MTS absorbance at 490 nm: 1.459
[7]; Anti CD3 0
  % Annexin V Positive: 23.14%
[7]; Anti CD3 0.11
  % Annexin V Positive: 41.08%
[7]; Anti CD3 0.33
  % Annexin V Positive: 47.28%
[7]; Anti CD3 1
  % Annexin V Positive: 56.66%
